Numbering of substitutions follows the chain as printed.
B1: A10 (antibody, human IgG1, lambda, L234A L235A, V domains shown)
VH: EVQLVESGGGLVQPGGSLKLSCAASGFTFNTYAMNWVRQASGKGLEWVGRIRSKYNNYATYYADSVKDRFTISRDDSKNTAYLQMNSLKTEDTAVYYCVRHGNFGNSYVSWFAYWGQGTLVTVSS
VL: QAVVTQEPSLTVSPGGTVTLTCRSSTGAVTTSNYANWVQQKPGQAPRTLIYGTNKRAPWTPARFSGSLLGDKAALTLSGAQPEDEAEYYCALWYSNLWVFGGGTKLTVLG
B2: G08 (antibody, human IgG1, lambda, L234A L235A, V domains shown)
VH: B1 VH with G49A, K78Q, N79S
VL: B1 VL with V38F, T48G, Y51G
B3: B06 (antibody, human IgG1, lambda, L234A L235A, V domains shown)
VH: B1 VH with A81L
VL: B1 VL with V38F, T48G
B4: B02 (antibody, human IgG1, lambda, L234A L235A, V domains shown)
VH: B1 VH with A81L
VL: B1 VL with V38F
B5: G07 (antibody, human IgG1, lambda, L234A L235A, V domains shown)
VH: B1 VH with G49A, K78Q, N79S
VL: B1 VL with V38F, T48G, Y51G, D71G
B6: G03 (antibody, human IgG1, lambda, L234A L235A, V domains shown)
VH: B1 VH with G49A, K78Q, N79S
VL: B1 VL with V38F, Y51G, D71G
B7: H04 (antibody, human IgG1, lambda, L234A L235A, V domains shown)
VH: B1 VH with G49A, K78Q, N79S, A81L
VL: B1 VL with V38F, Y51G
B8: H11 (antibody, human IgG1, lambda, L234A L235A, V domains shown)
VH: B1 VH with G49A, K78Q, N79S, A81L
VL: B1 VL with Y51G, D71G
B9: G06 (antibody, human IgG1, lambda, L234A L235A, V domains shown)
VH: B1 VH with G49A, K78Q, N79S
VL: B1 VL with V38F, T48G
B10: G11 (antibody, human IgG1, lambda, L234A L235A, V domains shown)
VH: B1 VH with G49A, K78Q, N79S
VL: B1 VL with Y51G, D71G
B11: H02 (antibody, human IgG1, lambda, L234A L235A, V domains shown)
VH: B1 VH with G49A, K78Q, N79S, A81L
VL: B1 VL with V38F
B12: H09 (antibody, human IgG1, lambda, L234A L235A, V domains shown)
VH: B1 VH with G49A, K78Q, N79S, A81L
VL: B1 VL with D71G
B13: B01 (antibody, human IgG1, lambda, L234A L235A, V domains shown)
VH: B1 VH with A81L
VL: B1 VL with V38F, D71G
B14: H01 (antibody, human IgG1, lambda, L234A L235A, V domains shown)
VH: B1 VH with G49A, K78Q, N79S, A81L
VL: B1 VL with V38F, D71G
B15: G04 (antibody, human IgG1, lambda, L234A L235A, V domains shown)
VH: B1 VH with G49A, K78Q, N79S
VL: B1 VL with V38F, Y51G
B16: B09 (antibody, human IgG1, lambda, L234A L235A, V domains shown)
VH: B1 VH with A81L
VL: B1 VL with D71G
B17: H03 (antibody, human IgG1, lambda, L234A L235A, V domains shown)
VH: B1 VH with G49A, K78Q, N79S, A81L
VL: B1 VL with V38F, Y51G, D71G
B18: A12 (antibody, human IgG1, lambda, L234A L235A, V domains shown)
VH: B1 VH
VL: B1 VL with Y51G
B19: A13 (antibody, human IgG1, lambda, L234A L235A, V domains shown)
VH: B1 VH
VL: B1 VL with T48G, D71G
B20: H08 (antibody, human IgG1, lambda, L234A L235A, V domains shown)
VH: B1 VH with G49A, K78Q, N79S, A81L
VL: B1 VL with V38F, T48G, Y51G
B21: H06 (antibody, human IgG1, lambda, L234A L235A, V domains shown)
VH: B1 VH with G49A, K78Q, N79S, A81L
VL: B1 VL with V38F, T48G
B22: B04 (antibody, human IgG1, lambda, L234A L235A, V domains shown)
VH: B1 VH with A81L
VL: B1 VL with V38F, Y51G
B23: H07 (antibody, human IgG1, lambda, L234A L235A, V domains shown)
VH: B1 VH with G49A, K78Q, N79S, A81L
VL: B1 VL with V38F, T48G, Y51G, D71G
B24: H05 (antibody, human IgG1, lambda, L234A L235A, V domains shown)
VH: B1 VH with G49A, K78Q, N79S, A81L
VL: B1 VL with V38F, T48G, D71G
B25: H12 (antibody, human IgG1, lambda, L234A L235A, V domains shown)
VH: B1 VH with G49A, K78Q, N79S, A81L
VL: B1 VL with Y51G
B26: G02 (antibody, human IgG1, lambda, L234A L235A, V domains shown)
VH: B1 VH with G49A, K78Q, N79S
VL: B1 VL with V38F
B27: G14 (antibody, human IgG1, lambda, L234A L235A, V domains shown)
VH: B1 VH with G49A, K78Q, N79S
VL: B1 VL with T48G
B28: B05 (antibody, human IgG1, lambda, L234A L235A, V domains shown)
VH: B1 VH with A81L
VL: B1 VL with V38F, T48G, D71G
B29: A02 (antibody, human IgG1, lambda, L234A L235A, V domains shown)
VH: B1 VH
VL: B1 VL with V38F
B30: G01 (antibody, human IgG1, lambda, L234A L235A, V domains shown)
VH: B1 VH with G49A, K78Q, N79S
VL: B1 VL with V38F, D71G
B31: G09 (antibody, human IgG1, lambda, L234A L235A, V domains shown)
VH: B1 VH with G49A, K78Q, N79S
VL: B1 VL with D71G
B32: A14 (antibody, human IgG1, lambda, L234A L235A, V domains shown)
VH: B1 VH
VL: B1 VL with T48G
B33: H10 (antibody, human IgG1, lambda, L234A L235A, V domains shown)
VH: B1 VH with G49A, K78Q, N79S, A81L
VL: B1 VL
B34: A11 (antibody, human IgG1, lambda, L234A L235A, V domains shown)
VH: B1 VH
VL: B1 VL with Y51G, D71G
B35: H14 (antibody, human IgG1, lambda, L234A L235A, V domains shown)
VH: B1 VH with G49A, K78Q, N79S, A81L
VL: B1 VL with T48G
B36: B03 (antibody, human IgG1, lambda, L234A L235A, V domains shown)
VH: B1 VH with A81L
VL: B1 VL with V38F, Y51G, D71G
B37: G13 (antibody, human IgG1, lambda, L234A L235A, V domains shown)
VH: B1 VH with G49A, K78Q, N79S
VL: B1 VL with T48G, D71G
B38: H13 (antibody, human IgG1, lambda, L234A L235A, V domains shown)
VH: B1 VH with G49A, K78Q, N79S, A81L
VL: B1 VL with T48G, D71G
B39: G05 (antibody, human IgG1, lambda, L234A L235A, V domains shown)
VH: B1 VH with G49A, K78Q, N79S
VL: B1 VL with V38F, T48G, D71G
B40: G10 (antibody, human IgG1, lambda, L234A L235A, V domains shown)
VH: B1 VH with G49A, K78Q, N79S
VL: B1 VL
B41: G12 (antibody, human IgG1, lambda, L234A L235A, V domains shown)
VH: B1 VH with G49A, K78Q, N79S
VL: B1 VL with Y51G

Target: recombinant cynomolgus monkey CD3ε/δ heterodimer (cynomolgus monkey) (UniProt Q95LI5)
Sequence (Q95LI5 22-117, stated change not applied, chain 1 of 2): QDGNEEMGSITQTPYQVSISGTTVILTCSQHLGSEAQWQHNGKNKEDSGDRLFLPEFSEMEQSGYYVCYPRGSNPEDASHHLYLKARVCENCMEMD
Sequence (Q95LI8 22-105, stated change not applied, chain 2 of 2, further chain): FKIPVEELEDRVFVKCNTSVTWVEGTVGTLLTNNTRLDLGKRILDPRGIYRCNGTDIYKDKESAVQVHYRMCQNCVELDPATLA
Assay: ELISA, coated CD3ε/δ

Binder | Absorbance (450 nm)
B1 | 0.066
B2 | 0.119
B3 | 0.143
B4 | 0.072
B5 | 0.316
B6 | 0.088
B7 | 0.068
B8 | 0.142
B9 | 0.078
B10 | 0.08
B11 | 0.08
B12 | 0.113
B13 | 0.071
B14 | 0.154
B15 | 0.063
B16 | 0.099
B17 | 0.085
B18 | 0.068
B19 | 0.154
B20 | 0.136
B21 | 0.101

Binder | Absorbance (450 nm)
B22 | 0.059
B23 | 0.09
B24 | 0.061
B25 | 0.083
B26 | 0.069
B27 | 0.099
B28 | 0.1
B29 | 0.068
B30 | 0.096
B31 | 0.079
B32 | 0.113
B33 | 0.077
B34 | 0.105
B35 | 0.094
B36 | 0.091
B37 | 0.242
B38 | 0.196
B39 | 0.072
B40 | 0.079
B41 | 0.065

Target: recombinant human CD3ε/δ heterodimer (human) (UniProt P07766)
Sequence (P07766 23-126, stated change not applied, chain 1 of 2): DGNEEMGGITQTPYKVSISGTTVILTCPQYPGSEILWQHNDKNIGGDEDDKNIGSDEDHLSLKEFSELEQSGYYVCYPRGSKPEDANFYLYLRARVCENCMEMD
Sequence (P04234 22-105, stated change not applied, chain 2 of 2, further chain): as the sequence (Q95LI8 22-105, stated change not applied, chain 2 of 2, further chain) above, with V5I, K15N, V20I, T32S, N33D, N34I, A64T, N74S, L83V counted along it
Assay: ELISA, coated CD3ε/δ

Binder | Absorbance (450 nm)
B1 | 0.097
B2 | 0.137
B3 | 0.138
B4 | 0.086
B5 | 0.118
B6 | 0.098
B7 | 0.077
B8 | 0.122
B9 | 0.118
B10 | 0.104
B11 | 0.111
B12 | 0.141
B13 | 0.097
B14 | 0.121
B15 | 0.129
B16 | 0.096
B17 | 0.113
B18 | 0.097
B19 | 0.172
B20 | 0.118
B21 | 0.134

Binder | Absorbance (450 nm)
B22 | 0.087
B23 | 0.11
B24 | 0.078
B25 | 0.099
B26 | 0.146
B27 | 0.105
B28 | 0.102
B29 | 0.098
B30 | 0.113
B31 | 0.106
B32 | 0.125
B33 | 0.088
B34 | 0.122
B35 | 0.096
B36 | 0.126
B37 | 0.265
B38 | 0.175
B39 | 0.109
B40 | 0.099
B41 | 0.085

— patent US20200317779A1
